How the values were obtained:
[1] = set-up: species or system CD1 mice; details: mouse, in vivo, iv
Procedure: For animal studies, protein conjugates were labeled with [^111In] after modification of the trypsin portion of conjugates with DTPA. EDC mediated coupling was carried out in aqueous solution at DTPA/EDC/Trypsin lysine residue ratio 500:50:1 at pH 7.5. The resultant DTPA-labeled conjugates were purified by gel chromatography on Sephadex G-25. DTPA to protein molar ratio, as determined by Cu(II) colorimetric assay at 775 nm was approximately 1:4. Unmodified proteins were labeled analogously.
Labeling was performed by transchelation from [^111In] citrate. The labeling solution was prepared by mixing carrier-free [^111In] indium chloride in 0.05 M HCl with a 20-fold volume excess of 0.5 M sodium citrate, pH=5.6. The resultant [^111In] indium citrate solution was added to unbuffered solutions of DTP-modified polymers at 0.2 to 1 mCi of [^111In] per 1 mg of dry substance. The labeled conjugates were separated by gel chromatography on Sephadex G-25, with simultaneous media replacement to sterile isotonic saline. […]
Mice were euthanized at 0.25, 0.5, 1, 2, 4, and 8 hours (n=2). Blood samples and harvested organs (hart, lungs, liver, spleen, kidneys, adrenal glands, stomach, GI, testes, muscle, bone, brain and tail) were analyzed on gamma counter. The amount of radioactivity per organ was expressed as a percentage of the injected dose per gram tissue.

[2] = set-up: species or system mice and rats; details: in vivo
Excerpt: Biokinetics and biodistributions were studied by blood and tissue sampling in rats, mice and rabbits using ^111In labeled preparations at clinically relevant doses. Fast initial stages (if present) were studied by dynamic gamma-scintigraphy in anesthetized animals.
Biokinetics of unmodified polyals of various molecular weights were studied in normal mice, rats and rabbits. Biokinetics of model nanocarriers (PHF graft copolymers) and polyal-modified liposomes were studied in rats. Biokinetics of formylpeptide conjugates were studied in normal rabbits and rabbits with focal bacterial inflammation. Protein conjugates were studied in mice and rats.

B1: Trypsin: Bovine pancreatic trypsin (EC 3.4.21.4) Type III; DTPA-modified, 111In-labeled for animal studies (protein, UniProt P00760 24-246, looked up)
Serine protease 1: IVGGYTCGANTVPYQVSLNSGYHFCGGSLINSQWVVSAAHCYKSGIQVRLGEDNINVVEGNEQFISASKSIVHPSYNSNTLNNDIMLIKLKSAASLNSRVASISLPTSCASAGTQCLISGWGNTKSSGTSYPDVLKCLKAPILSDSSCKSAYPGQITSNMFCAGYLEGGKDSCQGDSGGPVVCSGKLQGIVSWGSGCAQKNKPGVYTKVCNYVSWIKQTIASN
modifications: DTPA-modified, 111In-labeled
notes: Bovine pancreatic trypsin (EC 3.4.21.4) Type III; DTPA-modified, 111In-labeled for animal studies
clearance of activity from blood within 15 minutes after administration [1]: 80%
half-life of secondary monoexponential clearance [1]: 4 ± 0.8 h
blood half-life of unmodified protein [2]: 7 min

Source: US8361442B2, “Oxime conjugates and methods for their formation and use” (The General Hospital Corporation, priority 2002, dated 2013)
